We go through 1 molecule from article doi:10.1101/2023.04.20.537738 (bioRxiv, 2023).

This assay deals with SARS-CoV-2 HexaPro Spike (SARS-CoV-2, WA-1 / Wuhan-Hu-1 …, UniProt P0DTC2, stabilised, N-linked glycans (built in the model)). Put plainly: cryo-EM structure.

B1: STI-9167 Fab (therapeutically-modified version of FG-10A3) (Fab, V domains shown)
VH: QVQLVESGGGVVQPGRSLRLSCAASGFTFSSYGMNWVRQAPGKGLEWVAIIWYYGNNKYYVDSVKGRFTISRDNSKNTLYLQMNSLRAEDTAVYYCARKDYSKTYYGYYFDYWGQGTLVTVSS
VL: DIQMTQSPSSLSASVGDRVTITCRASQSIHSFLNWYQQKPGKPPNLLIYAASSLQSGLPSRFSGSGSGTDFTLTISSLQPEDFATYYCQQSYITPPTFGQGTKVEIK
On to B1, for which the binding result is on record as “binds”.
